Data published in publication PMC4263359, “Vesicular Stomatitis Virus Polymerase's Strong Affinity to Its Template Suggests Exotic Transcription Models” (PLoS Computational Biology, 2014).

Molecular target: T1, VSV L protein (vesicular stomatitis virus (endogenous …, UniProt P03523 1-2109))
T1 construct: also called catalytic unit of the VSV polymerase; polymerase
Test: co-sedimentation
Settings: partners not purified

T1 sequence (P03523 whole entry): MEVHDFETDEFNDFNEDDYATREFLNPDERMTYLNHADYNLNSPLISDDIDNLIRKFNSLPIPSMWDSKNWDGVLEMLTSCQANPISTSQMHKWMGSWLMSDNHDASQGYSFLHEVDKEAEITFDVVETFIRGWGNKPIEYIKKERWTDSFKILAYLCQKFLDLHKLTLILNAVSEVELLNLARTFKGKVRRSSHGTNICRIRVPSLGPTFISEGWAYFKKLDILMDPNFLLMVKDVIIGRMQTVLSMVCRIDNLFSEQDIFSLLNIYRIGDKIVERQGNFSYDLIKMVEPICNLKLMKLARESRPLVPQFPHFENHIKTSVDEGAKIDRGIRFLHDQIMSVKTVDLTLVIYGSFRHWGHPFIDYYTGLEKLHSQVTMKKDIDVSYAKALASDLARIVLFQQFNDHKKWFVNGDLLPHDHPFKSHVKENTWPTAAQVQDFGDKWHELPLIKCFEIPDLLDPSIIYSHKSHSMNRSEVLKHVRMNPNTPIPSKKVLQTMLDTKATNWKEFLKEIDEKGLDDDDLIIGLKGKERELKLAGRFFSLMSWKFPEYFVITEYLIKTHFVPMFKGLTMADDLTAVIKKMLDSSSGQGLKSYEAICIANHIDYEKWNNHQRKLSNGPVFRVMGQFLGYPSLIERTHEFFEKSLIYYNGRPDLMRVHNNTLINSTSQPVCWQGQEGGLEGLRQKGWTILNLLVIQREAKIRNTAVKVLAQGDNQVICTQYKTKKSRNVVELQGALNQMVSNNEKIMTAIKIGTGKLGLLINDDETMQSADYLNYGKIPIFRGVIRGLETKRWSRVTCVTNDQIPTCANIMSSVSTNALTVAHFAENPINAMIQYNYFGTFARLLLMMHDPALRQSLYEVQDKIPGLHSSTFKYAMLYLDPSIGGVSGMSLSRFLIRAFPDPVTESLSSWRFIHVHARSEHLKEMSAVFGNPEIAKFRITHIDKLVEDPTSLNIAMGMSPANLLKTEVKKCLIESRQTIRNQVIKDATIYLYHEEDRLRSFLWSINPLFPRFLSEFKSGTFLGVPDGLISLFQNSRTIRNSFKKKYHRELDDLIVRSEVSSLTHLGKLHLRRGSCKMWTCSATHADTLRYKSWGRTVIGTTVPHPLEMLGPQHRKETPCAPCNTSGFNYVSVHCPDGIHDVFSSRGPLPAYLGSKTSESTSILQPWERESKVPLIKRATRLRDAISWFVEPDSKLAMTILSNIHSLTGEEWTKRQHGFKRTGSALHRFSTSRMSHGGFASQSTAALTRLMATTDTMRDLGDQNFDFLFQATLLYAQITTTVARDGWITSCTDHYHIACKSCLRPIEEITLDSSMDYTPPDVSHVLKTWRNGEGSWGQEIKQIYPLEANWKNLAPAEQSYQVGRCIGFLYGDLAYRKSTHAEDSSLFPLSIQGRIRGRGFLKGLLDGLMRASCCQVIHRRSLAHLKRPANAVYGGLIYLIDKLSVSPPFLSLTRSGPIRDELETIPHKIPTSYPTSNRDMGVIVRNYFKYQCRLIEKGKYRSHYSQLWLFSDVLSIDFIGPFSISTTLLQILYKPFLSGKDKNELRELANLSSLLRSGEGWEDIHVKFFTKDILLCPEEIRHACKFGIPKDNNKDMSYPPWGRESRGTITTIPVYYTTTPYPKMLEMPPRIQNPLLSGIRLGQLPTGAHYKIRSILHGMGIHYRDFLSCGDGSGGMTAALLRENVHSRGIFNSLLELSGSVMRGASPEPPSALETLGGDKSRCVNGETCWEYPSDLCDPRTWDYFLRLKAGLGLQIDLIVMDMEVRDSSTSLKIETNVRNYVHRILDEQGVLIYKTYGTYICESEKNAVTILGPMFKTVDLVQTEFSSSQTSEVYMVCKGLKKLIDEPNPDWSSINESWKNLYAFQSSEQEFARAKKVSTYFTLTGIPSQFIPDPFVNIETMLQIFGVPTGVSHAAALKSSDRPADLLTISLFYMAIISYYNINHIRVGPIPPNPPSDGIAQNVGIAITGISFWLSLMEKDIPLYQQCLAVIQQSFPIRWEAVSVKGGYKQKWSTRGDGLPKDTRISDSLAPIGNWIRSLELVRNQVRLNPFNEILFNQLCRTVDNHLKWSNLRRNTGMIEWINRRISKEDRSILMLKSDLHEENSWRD

B1: full genome template (N-RNA) bound with P and L extracted from detergent-disrupted virions (complex)
chain 1: MSVTVKRIIDNTVIVPKLPANEDPVEYPADYFRKSKEIPLYINTTKSLSDLRGYVYQGLKSGNVSIIHVNSYLYGALKDIRGKLDKDWSSFGINIGKAGDTIGIFDLVSLKALDGVLPDGVSDASRTSADDKWLPLYLLGLYRVGRTQMPEYRKKLMDGLTNQCKMINEQFEPLVPEGRDIFDVWGNDSNYTKIVAAVDMFFHMFKKHECASFRYGTIVSRFKDCAALATFGHLCKITGMSTEDVTTWILNREVADEMVQMMLPGQEIDKADSYMPYLIDFGLSSKSPYSSVKNPAFHFWGQLTALLLRSTRARNARQPDDIEYTSLTTAGLLYAYAVGSSADLAQQFCVGDNKYTPDDSTGGLTTNAPPQGRDVVEWLGWFEDQNRKPTPDMMQYAKRAVMSLQGLREKTIGKYAKSEFDK
chain 2: MDNLTKVREYLKSYSRLDQAVGEIDEIEAQRAEKSNYELFQEDGVEEHTKPSYFQAADDSDTESEPEIEDNQGLYAQDPEAEQVEGFIQGPLDDYADEEVDVVFTSDWKPPELESDEHGKTLRLTSPEGLSGEQKSQWLSTIKAVVQSAKYWNLAECTFEASGEGVIMKERQITPDVYKVTPVMNTHPSQSEAVSDVWSLSKTSMTFQPKKASLQPLTISLDELFSSRGEFISVGGDGRMSHKEAILLGLRYKKLYNQARVKYSL
notes: also called whole genome template; copies: 1250 +
Binder B1 has a Kd of 0.02 nM.
